Measurements from the supplement of paper PMC7877785.
± gives the uncertainty stated by the source.

Experiment: self-splicing fitness, log relative to wild type (ln ratio); higher = more splicing; Tetrahymena group I intron in knt gene, E. coli kanamycin selection, DiMSum; sequences stand for … in CUCUCU…GGAGGGAAAAGUUAUCAGGCAUGCACCUGGUAGCUAGUCUUUAAACCAAUAGAUUGCAUCGGUUUAAAAGGCAAGACCGUCAAAUUGCGGGAAAGGGGUCAACAGCCGUUCAGUACCAAGUCUCAGGGGAAACUUUGAGAUGGCCUUGCAAAGGGUAUGGUAAUAAGCUGACGGACAUGGUCCUAACCACGCAGCCAAGUCCUAAGUCAACAGAUCUUCUGUUGAUAUGGAUGCAGUUCACAGACUAAAUGUCGGUCGGGGAAGAUGUAUUCUUCUCAUAAGAUAUAGUCGGACCUCUCCUUAAUGGGAGCUAGCGGAUGAAGUGAUGCAACACUGGAGCCGCUGGGAACUAAUUUGUAUGCGAAAGUAUAUUGAUUAGUUUUGGAGUACUCGUGGUCG
Outline: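 Six replicate transformations of E. coli BL21(DE3) with a pET-22b(+) library were grown overnight at 37°C or 30°C. The library randomised all eight P1ex-region intron nucleotides, the intron lying in the knt kanamycin-resistance gene, and plates were LB agar with or without 25 μg/mL kanamycin plus 100 μg/mL carbenicillin, 50 μM IPTG and 0.2% rhamnose. Pooled colonies were amplicon-sequenced on an Illumina HiSeq 2500, and fitness is the DiMSum error-weighted combination of wild-type-normalised replicate fold changes, kanamycin versus none.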

GAAGAGCAAUAUUACGGUGA
self-splicing fitness (ln) (30 °C): -2.47 ± 0.16
self-splicing fitness (ln) (37 °C): -1.02 ± 0.096

GAAGAGCAAUAUUACGUCGC
self-splicing fitness (ln) (30 °C): -2.58 ± 0.28
self-splicing fitness (ln) (37 °C): 0.595 ± 0.21

GAAGAGCAAUAUUACGUGCG
self-splicing fitness (ln) (30 °C): -2.87 ± 0.15
self-splicing fitness (ln) (37 °C): -2.03 ± 0.17

GAAGAGCAAUAUUACGUGCU
self-splicing fitness (ln) (30 °C): -3.52 ± 0.22

GAAGAGCAAUAUUACGUUAA
self-splicing fitness (ln) (30 °C): -2.65 ± 0.22
self-splicing fitness (ln) (37 °C): -1.65 ± 0.2

GAAUAGCAAUAUUACGAACA
self-splicing fitness (ln) (30 °C): -0.419 ± 0.13
self-splicing fitness (ln) (37 °C): -0.622 ± 0.11

GAAUAGCAAUAUUACGAACG
self-splicing fitness (ln) (30 °C): -1.64 ± 0.1
self-splicing fitness (ln) (37 °C): -0.336 ± 0.11

GAAUAGCAAUAUUACGACGU
self-splicing fitness (ln) (30 °C): -0.363 ± 0.11
self-splicing fitness (ln) (37 °C): 0.265 ± 0.13

GAAUAGCAAUAUUACGAGUU
self-splicing fitness (ln) (30 °C): -2.2 ± 0.084
self-splicing fitness (ln) (37 °C): -0.978 ± 0.093

GAAUAGCAAUAUUACGAUCA
self-splicing fitness (ln) (30 °C): -1.11 ± 0.12
self-splicing fitness (ln) (37 °C): 0.308 ± 0.11

GAAUAGCAAUAUUACGAUCC
self-splicing fitness (ln) (30 °C): -1.16 ± 0.14
self-splicing fitness (ln) (37 °C): -0.622 ± 0.15

GAAUAGCAAUAUUACGAUUC
self-splicing fitness (ln) (30 °C): -2.67 ± 0.14
self-splicing fitness (ln) (37 °C): -2.24 ± 0.2

GAAUAGCAAUAUUACGCCGA
self-splicing fitness (ln) (30 °C): -1.62 ± 0.31
self-splicing fitness (ln) (37 °C): 0.319 ± 0.22

GAAUAGCAAUAUUACGCCGG
self-splicing fitness (ln) (30 °C): -2.65 ± 0.32
self-splicing fitness (ln) (37 °C): -1.79 ± 0.24

GAAUAGCAAUAUUACGCGAU
self-splicing fitness (ln) (30 °C): -3.41 ± 0.2
self-splicing fitness (ln) (37 °C): -2.5 ± 0.19

GAAUAGCAAUAUUACGCGUU
self-splicing fitness (ln) (30 °C): -3.4 ± 0.24
self-splicing fitness (ln) (37 °C): -1.37 ± 0.15

GAAUAGCAAUAUUACGCUCU
self-splicing fitness (ln) (30 °C): -1.58 ± 0.12
self-splicing fitness (ln) (37 °C): -1.4 ± 0.14

GAAUAGCAAUAUUACGGCUC
self-splicing fitness (ln) (30 °C): 0.451 ± 0.09
self-splicing fitness (ln) (37 °C): 0.374 ± 0.14

GAAUAGCAAUAUUACGUCGA
self-splicing fitness (ln) (30 °C): -0.367 ± 0.11
self-splicing fitness (ln) (37 °C): -0.794 ± 0.12

GAAUAGCAAUAUUACGUUAA
self-splicing fitness (ln) (30 °C): -2.56 ± 0.17
self-splicing fitness (ln) (37 °C): -1.9 ± 0.15

GAAUAGCAAUAUUACGUUCA
self-splicing fitness (ln) (30 °C): -1.04 ± 0.38
self-splicing fitness (ln) (37 °C): -0.336 ± 0.3

GAAUAGCAAUAUUACGUUCU
self-splicing fitness (ln) (30 °C): -3.24 ± 0.26
self-splicing fitness (ln) (37 °C): -1.82 ± 0.27

GACAAGCAAUAUUACGAAAA
self-splicing fitness (ln) (30 °C): -2.27 ± 0.24
self-splicing fitness (ln) (37 °C): -2.22 ± 0.31

GACAAGCAAUAUUACGAAGC
self-splicing fitness (ln) (30 °C): -2.96 ± 0.22
self-splicing fitness (ln) (37 °C): -2.15 ± 0.28

GACAAGCAAUAUUACGAGCA
self-splicing fitness (ln) (30 °C): -1.12 ± 0.093
self-splicing fitness (ln) (37 °C): -0.355 ± 0.092

GACAAGCAAUAUUACGAGUA
self-splicing fitness (ln) (30 °C): -2.1 ± 0.12
self-splicing fitness (ln) (37 °C): -0.706 ± 0.098

GACAAGCAAUAUUACGAUAC
self-splicing fitness (ln) (30 °C): -1.73 ± 0.094
self-splicing fitness (ln) (37 °C): -1.28 ± 0.11

GACAAGCAAUAUUACGAUGU
self-splicing fitness (ln) (30 °C): -1.66 ± 0.067
self-splicing fitness (ln) (37 °C): -1.65 ± 0.11

GACAAGCAAUAUUACGCAAU
self-splicing fitness (ln) (30 °C): -3.08 ± 0.15
self-splicing fitness (ln) (37 °C): -1.58 ± 0.12

GACAAGCAAUAUUACGCCGU
self-splicing fitness (ln) (30 °C): -2.93 ± 0.14
self-splicing fitness (ln) (37 °C): -0.97 ± 0.12

GACAAGCAAUAUUACGCGAG
self-splicing fitness (ln) (30 °C): -1.25 ± 0.11
self-splicing fitness (ln) (37 °C): -2.03 ± 0.15

GACAAGCAAUAUUACGCGAU
self-splicing fitness (ln) (30 °C): -2.96 ± 0.13
self-splicing fitness (ln) (37 °C): -1.02 ± 0.099

GACAAGCAAUAUUACGGACG
self-splicing fitness (ln) (30 °C): -1.75 ± 0.098
self-splicing fitness (ln) (37 °C): -0.673 ± 0.12

GACAAGCAAUAUUACGGAGC
self-splicing fitness (ln) (30 °C): -2.2 ± 0.09
self-splicing fitness (ln) (37 °C): -1.65 ± 0.13

GACAAGCAAUAUUACGGCGU
self-splicing fitness (ln) (30 °C): -0.596 ± 0.063
self-splicing fitness (ln) (37 °C): -0.154 ± 0.08

GACAAGCAAUAUUACGGGUA
self-splicing fitness (ln) (30 °C): -0.935 ± 0.066
self-splicing fitness (ln) (37 °C): -0.82 ± 0.069

GACAAGCAAUAUUACGGUGA
self-splicing fitness (ln) (30 °C): -1.3 ± 0.065
self-splicing fitness (ln) (37 °C): -0.86 ± 0.086

GACAAGCAAUAUUACGUAGU
self-splicing fitness (ln) (30 °C): -3.92 ± 0.18
self-splicing fitness (ln) (37 °C): -1.65 ± 0.11
